This is an account of results in patent US20090068234A1 (US Dept. of Health and Human Services, published 2009).

This assay addresses OFA alone (control OFA construct, not fused to a chemoattractant) (murine, UniProt P14206 1-295). The assay can be described thus: ligand binding-internalization assay on iDC, flow cytometry (data not shown). Here is the method:
The ligand binding-internalization assays were performed with iDC or splenocytes (1×10⁵) blocked with mouse serum in PBS containing 2% BSA. Fusion proteins (10-50 μg/ml) were incubated in complete medium for Ih at 37° C. or at 4° C. To detect bound proteins, the cells were incubated with anti-c-myc mAb or isotype-matched, purified mouse IgG1, followed with α-mouse Ig-FITC mAb incubation (Jackson ImmunoResearch Laboratory, Bar Harbor, Me.) for 20 min each, and then fixed with 1% paraformaldehyde. The binding-internalization was assessed via flow cytometry on a FACScan (Becton Dickinson, Franklin Lakes, N.J.) using CellQuest software.

B1: CCR6 expressed on murine BM iDC (receptor)
chain: MNSTESYFGTDDYDNTEYYSIPPDHGPCSLEEVRNFTKVFVPIAYSLICVFGLLGNIMVVMTFAFYKKARSMTDVYLLNMAITDILFVLTLPFWAVTHATNTWVFSDALCKLMKGTYAVNFNCGMLLLACISMDRYIAIVQATKSFRVRSRTLTHSKVICVAVWFISIIISSPTFIFNKKYELQDRDVCEPRYRSVSEPITWKLLGMGLELFFGFFTPLLFMVFCYLFIIKTLVQAQNSKRHRAIRVVIAVVLVFLACQIPHNMVLLVTAVNTGKVGRSCSTEKVLAYTRNVAEVLAFLHCCLNPVLYAFIGQKFRNYFMKIMKDVWCMRRKNKMPGFLCARVYSESYISRQTSETVENDNASSFTM
notes: whole, on cells
For the molecule B1, the binding result is given as “no binding”.
